Assay results published in the RNAGym collection of RNA variant scans (doi:10.1073/pnas.2313332121).

B1: TPR t1 (parent)
chain: GACCAAUCUGCCCUCAGAGCUCGAGAACAUCUUCGGAUGCAGAGGAGGCAGGCUUCGGUGGCGCGAUAGCGCCAACGUCCUCAACCUCCAAUGCAUCCCACCACAUGAUGAUGCCUGAAGAGCCUUGGUUUUUUG

Variants of: B1
Assay: polymerase ribozyme fitness, log enrichment relative to wild type (log ratio); higher = more active; in vitro selection for triplet polymerase activity
Summary of the method: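 Mutant libraries were PCR-built and transcribed for each subunit of a heterodimeric triplet polymerase ribozyme and selected for one round in triplicate at −7 °C, frozen, before gel excision of extended constructs and streptavidin-bead capture. Input and output libraries were Illumina-sequenced, keeping genotypes with ≥10 input reads and ≥1 read per output. Fitness is a logarithmic ratio of genotype to wild-type enrichment, in base 2, using inverse-variance-weighted replicate averages.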

Point of comparison: GCCCAAUCUGCCCUCAGAGCUCGAGAACAUCUUCGGAUGCAGAGGAGGCAGGCUUCGGUGGCGCGAUAGAGCCAACGUCCUCAACCUCCAAUGCAUCCCACCACAUGAUGAUGCCCGAAGAGCCUCGGUUUUAUG [A2C C70A U116C U126C U133A], “polymerase ribozyme fitness (log ratio)” value -5.29. Against it:
- GACCAAUCCGCCCUCAGAGCUCGAGAACAUCUUCGAAUGCAGAGGAGGCAGGCUUCGGUGGCGCGAUAGCGCCAACGUCCUCAAUCUCCAAUGCAUCCCACCACAUGAUGAUGCCUGAAGAGACUUGGUUUUUUG [U9C G36A C85U C123A] — higher, 0.00121
- GACUAAUCUGCCCUCAGAGCUCGAGAACAUCUUCGGAUGCAGAGGAGGCAGCCUUCGGUGGCACGAUAGCGCCAACGUCCUCAACCUCCAAUGCAUCCCACCACAUGAUAAUGCCUGAAGAGCCUUGGUUUUUUG [C4U G52C G63A G110A] — higher, -4.4
- GACCAAUCUGUCCUCAGAGCUCGAGAACAUCUUCGGAUGCAGAGGAGGCAGGCUUCGGUGGCGCGAUAGCGCCAACGUCCUCAACCUCCAAUGCAUCCCACUACAUGAUGAUGCCUGAAGAGCCUUGGUUUUUUG [C11U C102U] — higher, -2.09
- GACCAAUCUGCCCUCAGAGCUCGAGAACAUCUUCGGAUGCAGAGGAGGCAGGCUUCGGUGGCGCGAUAGCGCCAACGUCCUCAACCUCCAAUGCAUCCCAGGACAUGAUCAUGCCUGAAGAGCCUUGGUUUUUUG [C101G C102G G110C] — higher, -4.36
- GACCAAUCUGCCCUCAGAGCUCGAGAACAUCUUCGGAUGCAGGGGAGGCGGGCUUCGGUUGCGCGAUAGCGCCAACGUCCUCAACCUCCAAUGCGUCCCACCACAUGAUGAUGCCUGAAGAGCCUUGGUUUCUUG [A43G A50G G60U A95G U132C] — higher, -3.96
- GACCAAUCUGCCCUCAGAGCUCGAGAACUUCUUCGGAUGCAGAGGAGGCAGGCUUCGGUGGCGCGAUAGCGCCAACGUCCUCAACCUCCAAUGCAUCCCACCACAUGAUGCUGCGUGAAGAGCCGUGGUUUUAUG [A29U A111C C115G U125G U133A] — higher, -4.49
- GACCAAUCUGCCCUCAGAGCUCGAGAACAUCUUCGGAUGCAGAGGAGGCAGGCUUCGGUGGCGCGAUAUCGCCAAGGUCCUCAAGCUCCAAUGCAUCCCACCACAUGAUGAUGCCUGAAUAGCCUUGGUUUUUUG [G69U C76G C85G G120U] — higher, -2.87
- GACCAAUCUACCCUCAGAGCUCGAGAACAUCUUCGGAUGCAGAGUAGGCAGGCUUCGGUGGCGCGAUAGCGCCAACGUCCUCAACCUCCAAUGCAUCCCACCACAUGAUGAUACCUGAAGAGCCUUGGUUUUUUG [G10A G45U G113A] — higher, -1.45
- GACCAAUCUGCCCUCAGAGCUCGAGAACAUCUUUGGAUGCAGAGGAGGCAGGCUUCGGUGGCGCGAUAGCGCCAACGUCCUCAACCUCCAAUGCAUCCCACCACAUGAUGAUGCUUGAAGAGCCUUGGUUUUUUG [C34U C115U] — within 0.2 log units, -5.45
- GACCAAUGUGCCCUCAGAGCUCGAGAACAUCUUCGAAUGCAGAGGAGGCAGGCUUCGGUGGCGCGAUAGCGCCUACGUCCUCAACCUCCGAUGCAUCCCACCACAUGAUGAUGCCUGAAGAGCCUUGGUUUUUUG [C8G G36A A74U A90G] — higher, -0.292
- GACCAAUCUGCCCUCAGAGCUCGAGAACAUCUUCGGAUGCAGAGGAGGUAGGUUUCGGUAGCGCGAUAGCGCCAACGUCCUCAACCUCCAAUGCAUCCCACCACAUGAUGAUGCCUGAAGAACCUUGGUUUUGUG [C49U C53U G60A G122A U133G] — higher, -1.32
- GACCAAUCUGCCCUCAGAGCUCGAGAACAUCUUCGUAUGCAGAGGCGGCAGGCUUCGGUGGCGCGAUAGCGCCAACGUCCUCAACCUCCAAUGCAUCCCACCACAUGAUGAUGCCUGAAGAGCCUUGGUUUUUUG [G36U A46C] — higher, -2.09
- GACCAAUCUGCCCUCAGAGCUCGAGAACAUCUUCGGAUGCAGAGGAGGCAGGCUUCGGUGCCCCGAUAGCGCCAACGUCCUCAACCUCCAAUGCAUCCCACCACAUGAUGAUGCCUCAAGAGCCUAGGUUUUUUU [G61C G63C G117C U126A G135U] — higher, -4.51
- GACCACUCGGCCCUCAGAGCUCGAGAACAUCUUCGGAUGCAGAGGAGGCAGGCUUCGGUGGCGCGAUAUCGCCAACGUCCUCGACCUCCACUGCAUCCCACCACAUGAUGAUGCCUUAAGAGCCUUGGUUUUUUA [A6C U9G G69U A83G A91C G117U G135A] — higher, 0.71
- GACCAAUCUGCUUUCAGAGCUCGAGAACAUCUUCGGAUGCAGAGGAGGCAGGCUUCGGUGGCGCGAUAGUCCCAACGUCCUCAACCUCCAAUGCAACCCACCACAUGAUGAGGCCUGAAGAGCCUUGGUUCUUUG [C12U C13U C70U G71C U96A U112G U131C] — higher, -4
- GACCAAUCUGGCCUCAGAGCUCGAGAACAUCUUCGGAUGCAGAGGAGGCAGGCUUCGGUGGCGCGAUAGCGCCAACGUCAUCAACCUCCAAUGCAUCCCACCACAUGAUGAUGCCUCAAGAGUCUUGGUUUUUUG [C11G C80A G117C C123U] — lower, -7.43
- GACCAAUCUGCCCUCAGAGCUCGAGAACAUCUUCGGAUGCAGAGAAGGCAGGGUUCGGUGACGCGAUAGCGCCAACGUUCUCAACCUCCAAUGCAUCUCACCACAUGAUGAUGCCUGAAGAGCCUUGGUUUUUUG [G45A C53G G61A C79U C98U] — higher, -3.8
- GACCAAUCUGCCCUCAGAGCUGGAGCACAUCUUCGGAUUCAGAGGAGGCGGGCUUCGGUGGCGCGAUAGCGUCAACGUCCUCAACCUCCAAUGCAUCCCACCACAUGAUGACGCCUGAAGAGCCUUGGUUUUUUG [C22G A26C G39U A50G C72U U112C] — higher, -4.01
- GACCAAUCUGCCCUCAGAGCUCGAGAACAUCUUCGGAUGCAGAGGAGGCAGGCUUGGGUGGCGCGAUAGCGCCAACGUCCUCAACCUCCAAUGCAUCCCACCACAUGAUGAUGCCUGAAGAGCCUUAAUUUUUUG [C56G G127A G128A] — higher, -3.93
- GACCAAUCUGCCCUCAGAGAUCGAGAAAAUCUUCGAAUGCAGAGGAGGCAGGCUUCGGUGGCGCGAUAGCGCCAACGUCCUCAACCUCCCAUGCAUCCCACCACAUGAUUAUGCCUGAAGAGCCUUGGUUUUUUG [C20A C28A G36A A90C G110U] — higher, -4.25
